± gives the uncertainty stated by the source.
Assay: self-splicing fitness, log relative to wild type (ln ratio); higher = more splicing; Tetrahymena group I intron in knt gene, E. coli kanamycin selection, DiMSum; sequences stand for … in CUCUCU…GGAGGGAAAAGUUAUCAGGCAUGCACCUGGUAGCUAGUCUUUAAACCAAUAGAUUGCAUCGGUUUAAAAGGCAAGACCGUCAAAUUGCGGGAAAGGGGUCAACAGCCGUUCAGUACCAAGUCUCAGGGGAAACUUUGAGAUGGCCUUGCAAAGGGUAUGGUAAUAAGCUGACGGACAUGGUCCUAACCACGCAGCCAAGUCCUAAGUCAACAGAUCUUCUGUUGAUAUGGAUGCAGUUCACAGACUAAAUGUCGGUCGGGGAAGAUGUAUUCUUCUCAUAAGAUAUAGUCGGACCUCUCCUUAAUGGGAGCUAGCGGAUGAAGUGAUGCAACACUGGAGCCGCUGGGAACUAAUUUGUAUGCGAAAGUAUAUUGAUUAGUUUUGGAGUACUCGUGGUCG
In short: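 DiMSum derived fitness as the error-weighted combination of fold changes across replicates, kanamycin versus no kanamycin, normalised to wild type. E. coli BL21(DE3) held the library, which randomised all eight P1ex-region intron nucleotides within the knt kanamycin-resistance gene on pET-22b(+). Six replicate transformations grew overnight at 37°C or 30°C on LB agar with or without 25 μg/mL kanamycin, also containing 100 μg/mL carbenicillin, 50 μM IPTG and 0.2% rhamnose, and pooled colonies were amplicon-sequenced on an Illumina HiSeq 2500.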

Sequence	self-splicing fitness (ln) (30 °C)	self-splicing fitness (ln) (37 °C)
GCGCAGCAAUAUUACGCGUA	-1.14 ± 0.082	-1.39 ± 0.083
CGCCAGCAAUAUUACGAAAU	-4.66 ± 0.37	-2.69 ± 0.24
AAGAAGCAAUAUUACGGUGC	-3.77 ± 0.2	-1.68 ± 0.17
CCUAAGCAAUAUUACGUCGC	-2.21 ± 0.16	-1.85 ± 0.2
GCAAAGCAAUAUUACGUAAU	-1.23 ± 0.061	-0.867 ± 0.084
GGCCAGCAAUAUUACGCAGA	-1.66 ± 0.082	-1.28 ± 0.08
GUUUAGCAAUAUUACGGCCG	-2.4 ± 0.18	-0.926 ± 0.21
GGCAAGCAAUAUUACGCUGU	-4.24 ± 0.23	-2.05 ± 0.2
ACUGAGCAAUAUUACGCUGU	-3.42 ± 0.28	-1.7 ± 0.25
AUACAGCAAUAUUACGGAAC	-3.46 ± 0.43	-1.67 ± 0.35
ACCUAGCAAUAUUACGAAGA	-2.01 ± 0.19	-1.77 ± 0.13
GCUAAGCAAUAUUACGGACU	-1.66 ± 0.12	-0.74 ± 0.14
ACCGAGCAAUAUUACGAUUG	-3.69 ± 0.17	-2.02 ± 0.18
UCAUAGCAAUAUUACGUUUA	-4.13 ± 0.39	-2.11 ± 0.2
GUAAAGCAAUAUUACGCUAU	-1.22 ± 0.087	-0.23 ± 0.1
UUGGAGCAAUAUUACGUCUG	-2.66 ± 0.17	-0.914 ± 0.22
CACUAGCAAUAUUACGGUGU	-3.65 ± 0.15	-2.95 ± 0.21
CCUAAGCAAUAUUACGAUUU	-3.8 ± 0.25	-0.794 ± 0.23
CAAUAGCAAUAUUACGGUUC	-3.3 ± 0.48	–
UUGCAGCAAUAUUACGCAUU	-1.92 ± 0.19	-1.42 ± 0.18
CAUCAGCAAUAUUACGUAUG	-2.16 ± 0.14	-1.43 ± 0.15
UCCAAGCAAUAUUACGGCGU	-1.95 ± 0.091	-0.529 ± 0.1
CAUAAGCAAUAUUACGGGAC	-1.54 ± 0.18	-2.23 ± 0.27
AAUGAGCAAUAUUACGGAGU	–	-0.994 ± 0.44
UAGUAGCAAUAUUACGUAUA	-1.69 ± 0.25	-1.14 ± 0.27
UAGGAGCAAUAUUACGAAGC	-4.41 ± 0.33	-1.44 ± 0.26

Sequence	self-splicing fitness (ln) (30 °C)	self-splicing fitness (ln) (37 °C)
UGGAAGCAAUAUUACGUAAG	-1.07 ± 0.12	-0.81 ± 0.13
UGUCAGCAAUAUUACGCGUG	0.623 ± 0.069	0.117 ± 0.098
GUUGAGCAAUAUUACGUCCA	-2.21 ± 0.34	–
CCGCAGCAAUAUUACGGAGU	-4.11 ± 0.21	-3.01 ± 0.23
CCAGAGCAAUAUUACGAGAG	-2.95 ± 0.21	-1.39 ± 0.23
CUCCAGCAAUAUUACGAACC	-3.49 ± 0.26	-1.91 ± 0.32
CAUAAGCAAUAUUACGAGUU	-3.62 ± 0.29	-1.82 ± 0.14
AGGCAGCAAUAUUACGAGGG	-2.52 ± 0.11	-2.83 ± 0.23
CCGCAGCAAUAUUACGCCCA	–	-2.55 ± 0.31
CUUAAGCAAUAUUACGUAUC	–	-2.98 ± 0.33
GGAGAGCAAUAUUACGUCGA	-2.7 ± 0.32	-1.53 ± 0.26
CUUUAGCAAUAUUACGUCGG	-1.79 ± 0.11	-1.25 ± 0.12
GAGAAGCAAUAUUACGGAGA	-3.8 ± 0.24	-2.04 ± 0.28
AUUUAGCAAUAUUACGCUGU	-1.33 ± 0.14	-1.01 ± 0.16
UCAUAGCAAUAUUACGGGAA	-1.35 ± 0.19	-1.1 ± 0.16
AAAGAGCAAUAUUACGGUGC	-3.49 ± 0.17	-1.54 ± 0.15
CAUGAGCAAUAUUACGUACU	-3.25 ± 0.18	-2.59 ± 0.18
AGCGAGCAAUAUUACGGGAA	–	-1.86 ± 0.27
UCGGAGCAAUAUUACGAAUU	-2.9 ± 0.26	-2.69 ± 0.28
UUAUAGCAAUAUUACGCGCU	-2.25 ± 0.14	-1.55 ± 0.13
CUCUAGCAAUAUUACGAUUG	-1.48 ± 0.091	-1.24 ± 0.12
GGGAAGCAAUAUUACGACUG	-0.222 ± 0.088	-0.457 ± 0.11
UAGGAGCAAUAUUACGGGUG	-2.74 ± 0.27	-1.14 ± 0.26
GACAAGCAAUAUUACGUGCA	-0.912 ± 0.06	0.0273 ± 0.077
CAAGAGCAAUAUUACGUUCU	-3.7 ± 0.27	-3.35 ± 0.23
AAGUAGCAAUAUUACGGGUA	-1.49 ± 0.16	-1.09 ± 0.17

Sequence	self-splicing fitness (ln) (30 °C)	self-splicing fitness (ln) (37 °C)
AAGAAGCAAUAUUACGAUUC	-1.49 ± 0.1	-0.941 ± 0.14
CGAGAGCAAUAUUACGCAGA	-3.36 ± 0.33	-1.94 ± 0.26
GUAUAGCAAUAUUACGGCGG	–	-2.1 ± 0.38
UCAAAGCAAUAUUACGGAAC	-4.3 ± 0.32	–
ACUGAGCAAUAUUACGCGAC	-2.51 ± 0.43	-1.46 ± 0.29
AAAUAGCAAUAUUACGCUGU	-3.27 ± 0.14	-1.89 ± 0.1
AAAGAGCAAUAUUACGAUAG	-3.88 ± 0.23	-2.9 ± 0.2
ACUGAGCAAUAUUACGUCGG	-2.82 ± 0.16	-2.47 ± 0.21
GAUUAGCAAUAUUACGACAU	-0.469 ± 0.014	-0.0848 ± 0.033
AGACAGCAAUAUUACGCUCU	-2.08 ± 0.18	-0.598 ± 0.15
CACAAGCAAUAUUACGUCUA	-1.42 ± 0.087	-1.26 ± 0.084
UUGGAGCAAUAUUACGACAC	–	-2.36 ± 0.37
UUGAAGCAAUAUUACGCCUU	-2.96 ± 0.13	-1.53 ± 0.14
CGUCAGCAAUAUUACGAGUA	-2.55 ± 0.28	-2.69 ± 0.39
AGUUAGCAAUAUUACGUUAU	-3.25 ± 0.17	-2.08 ± 0.17
GAUCAGCAAUAUUACGUCUC	-0.796 ± 0.1	0.0417 ± 0.13
GUAAAGCAAUAUUACGAACU	-0.845 ± 0.11	-0.0974 ± 0.14
CGACAGCAAUAUUACGGUUG	-3.3 ± 0.13	-2.84 ± 0.18
AGCAAGCAAUAUUACGCACG	-1.44 ± 0.097	-0.144 ± 0.13
UAGCAGCAAUAUUACGGACU	-1.07 ± 0.1	-0.713 ± 0.15
GCGUAGCAAUAUUACGCGUU	-1.14 ± 0.19	-1.55 ± 0.22
AGUCAGCAAUAUUACGUUUG	-4.04 ± 0.21	-2.53 ± 0.19
GAUUAGCAAUAUUACGACUU	0.263 ± 0.12	-0.24 ± 0.12
ACCUAGCAAUAUUACGCUUA	-1.73 ± 0.11	-0.883 ± 0.1
CGCUAGCAAUAUUACGGAGG	-1.78 ± 0.099	-0.655 ± 0.13
UAAAAGCAAUAUUACGCCAA	-2.34 ± 0.22	-1.63 ± 0.18
